Holding throughout (assay): co-sedimentation
For assay [1], the target named is human platelet nonmuscle F-actin (human) (UniProt P60709).
Assay [2] concerns the target F-actin.
Assay [3] has as its target rabbit skeletal muscle F-actin (rabbit) (UniProt P68135).

Values joined by “and” are separate entries in the source; they are usually repeats but may differ in a detail not shown here. Identical values can stand only once.

As to “recombinant full-length small espin (natural protein)”, the equilibrium dissociation constant (Kd) (commonly the concentration at which binding is half-saturated) in assay [1] was determined as 50 nM; in assay [3], 150 nM. For the same substance, the stoichiometry N (actin monomers per espin) in assay [2] was 3 and 4.
